In patent publication US20220251222A1 (Johns Hopkins, published 2022):

Tests used:
[1] = molecular target: T1, IL-6Rα and IL-8R co-expressed on IL-6Rα^+/IL-8R^+ HEK 293T cells (UniProt P08887 20-468; P25025 1-360, limits assumed); experiment: flow cytometry titration on IL-6Rα+/IL-8R+ HEK 293T cells (both targets present); IL-6Rα+/IL-8R+ 293T cells, both targets present (FIG. 7C)
T1 construct: whole, on cells; Not a complex: two separate receptors on the same cell; also called IL-6Rα^+/IL-8R^+ 293T cells
T1 sequence (looked up) 1: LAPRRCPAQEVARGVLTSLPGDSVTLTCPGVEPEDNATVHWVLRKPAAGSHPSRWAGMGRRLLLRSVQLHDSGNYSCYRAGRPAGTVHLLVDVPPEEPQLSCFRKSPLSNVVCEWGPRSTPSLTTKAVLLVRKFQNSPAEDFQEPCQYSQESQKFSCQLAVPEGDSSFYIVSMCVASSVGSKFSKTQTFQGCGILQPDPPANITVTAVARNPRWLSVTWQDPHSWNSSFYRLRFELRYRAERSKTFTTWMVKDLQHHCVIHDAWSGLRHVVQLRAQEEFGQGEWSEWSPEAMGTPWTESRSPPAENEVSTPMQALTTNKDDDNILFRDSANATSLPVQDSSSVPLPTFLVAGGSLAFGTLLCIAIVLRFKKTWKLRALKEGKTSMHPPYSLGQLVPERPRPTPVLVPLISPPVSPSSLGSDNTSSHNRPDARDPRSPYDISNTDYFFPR
T1 sequence (looked up) 2: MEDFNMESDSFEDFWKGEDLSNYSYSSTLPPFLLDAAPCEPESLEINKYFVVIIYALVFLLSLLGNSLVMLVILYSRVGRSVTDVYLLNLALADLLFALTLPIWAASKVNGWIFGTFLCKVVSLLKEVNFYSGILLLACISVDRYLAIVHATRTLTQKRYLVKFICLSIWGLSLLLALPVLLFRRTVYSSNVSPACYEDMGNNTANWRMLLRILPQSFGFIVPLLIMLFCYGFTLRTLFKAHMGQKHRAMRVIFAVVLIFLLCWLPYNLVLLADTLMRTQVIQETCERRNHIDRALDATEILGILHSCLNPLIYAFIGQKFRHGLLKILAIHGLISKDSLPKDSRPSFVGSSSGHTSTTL
Procedure: (§1) HEK 293T cells were cultured in Dulbecco's modified Eagle's medium (DMEM, Mediatech) supplemented with 10% (Hyclone), 2 mM L-glutamine and 100 U/mL penicillin-streptomycin (Gibco). For surface binding assays, IL-6Rα⁺/IL-8R⁻, IL-6Rα⁻/IL-8R⁺, IL-6Rα⁺/IL-8R⁺, and […] HEK 293T cells were trypsinized for detachment, resuspended in PBSA, and then aliquoted into 96-well plates (1×10⁵ cells per well). Cells were incubated with titrations of various monoclonal or bispecific antibodies for 2 hr at 4° C. with rotation. Cells were then washed and incubated with a 1:50 dilution of fluorescein isothiocyanate (FITC)-conjugated anti-human IgG1 antibody (Sigma-Aldrich, Clone 8c/6-39) in PBSA for 15 min at 4° C. After a final wash, cells were resuspended in PBSA and analyzed on a CytoFLEX flow cytometer (Beckman Coulter). Binding isotherms were fitted to a first-order logistic model and KD values were calculated using GraphPad Prism data analysis software. Mean fluorescence intensity (MFI) of unstimulated cells was subtracted. […]
(§2) To determine whether engineered bispecific binding agents BS1 and BS2 specifically engage target antigens in a physiologically relevant context, antibody binding to IL-6Rα⁺/IL-8R⁻, IL-6Rα⁻/IL-8R⁺, IL-6Rα⁺/IL-8R⁺, and IL-6Rα⁻/IL-8R⁻ lentivirally transduced HEK 293T cells was measured via flow cytometry. […]

[2] = molecular target: T2, IL-8RB expressed on lentivirally transduced HEK 293T cells (UniProt P25025 1-360, limits assumed); experiment: competition with 400 nM His-tagged IL-8 on IL-6Rα-/IL-8R+ HEK 293T cells, flow cytometry
T2 construct: whole, on cells; also called IL-8R^+ cells; IL-6Rα^-/IL-8R^+ HEK 293T cells
T2 sequence (looked up): T1 sequence (looked up) 2
Procedure: IL-6Rα⁺/IL-8R⁻ and IL-6Rα⁻/IL-8R⁺ HEK 293T cells were cultured as previously described, and were trypsinized, resuspended in PBSA, and aliquoted into 96-well plates (2×10⁵ cells per well). IL-6Rα⁺/IL-8R⁻ 293T cells were incubated with titrations of various monoclonal or bispecific antibodies in the presence of saturating concentration of biotinylated IL-6 (100 nM) (Acro Biosystem, cat #: IL6-H8218-25UG) for 2 hr at 4° C. with rotation. Cells were then washed and incubated with 1:200 dilution of Alexa Fluor 647-conjugated streptavidin (Fisher Scientific, cat #: S21374) in PBSA for 15 min at 4° C. After a final wash, cells were resuspended in PBSA and analyzed on a CytoFLEX flow cytometer (Beckman Coulter). Curves were fitted to a first-order logistic model and IC₅₀ values were calculated using GraphPad Prism data analysis software. Mean fluorescence intensity (MFI) of unstimulated cells was subtracted. Similarly, IL-6Rα⁻/IL-8R⁺ 293T cells were incubated with titrations of various monoclonal or bispecific antibodies with saturating concentration of His-tagged IL-8 (400 nM) (Sino Biological, cat #: 10098-H08Y-100) for 2 hr at 4° C. with rotation. […] After a final wash, cells were resuspended in PBSA and analyzed on a CytoFLEX flow cytometer (Beckman Coulter). Curves were fitted to a first-order logistic model and IC₅₀ values were calculated using GraphPad Prism data analysis software. […]

[3] = molecular target: T3, IL-6Rα expressed on lentivirally transduced HEK 293T cells (UniProt P08887 20-468, limits assumed); experiment: flow cytometry titration on IL-6Rα+/IL-8R- HEK 293T cells; IL-6Rα+/IL-8R- 293T cells (FIG. 7A)
T3 construct: whole, on cells; also called IL-6Rα^+ cells; IL-6Rα^+/IL-8R^- HEK 293T cells
T3 sequence (looked up): T1 sequence (looked up) 1
Procedure: as §1, §2

[4] = molecular target: T2, IL-8RB expressed on lentivirally …; experiment: flow cytometry titration on IL-6Rα-/IL-8R+ HEK 293T cells; IL-6Rα-/IL-8R+ 293T cells (FIG. 7B)
Procedure: as §1, §2

B1: BS2 bispecific antibody (scFv-IgG fusion: 10H2 IgG with tocilizumab scFv on the light chains) (bispecific antibody)
heavy: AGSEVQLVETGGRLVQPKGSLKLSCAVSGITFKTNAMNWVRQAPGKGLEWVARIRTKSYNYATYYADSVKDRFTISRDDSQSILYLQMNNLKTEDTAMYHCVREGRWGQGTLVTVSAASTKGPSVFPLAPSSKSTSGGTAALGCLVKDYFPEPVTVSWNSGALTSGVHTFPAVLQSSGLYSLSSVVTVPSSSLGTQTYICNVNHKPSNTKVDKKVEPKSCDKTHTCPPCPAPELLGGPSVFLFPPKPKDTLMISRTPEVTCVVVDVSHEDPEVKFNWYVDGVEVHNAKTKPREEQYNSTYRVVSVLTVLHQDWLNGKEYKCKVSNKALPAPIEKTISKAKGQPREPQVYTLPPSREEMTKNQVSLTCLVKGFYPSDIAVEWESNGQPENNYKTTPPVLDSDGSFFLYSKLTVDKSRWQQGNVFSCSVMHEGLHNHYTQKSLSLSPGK
light: AGSQAVVTQESALTTSPGETVTLTCRSSTGAVTTSNYANWVQEKPDHLFTGLIGGTNNRPPGVPARFSGSLIGDKAALTITGAQIEDEAIYFCALWYSNHLVFGGGTKLTVLRTVAAPSVFIFPPSDEQLKSGTASVVCLLNNFYPREAKVQWKVDNALQSGNSQESVTEQDSKDSTYSLSSTLTLSKADYEKHKVYACEVTHQGLSSPVTKSFNRGECGGGGSGGGGSEVQLQESGPGLVRPSQTLSLTCTVSGYSITSDHAWSWVRQPPGRGLEWIGYISYSGITTYNPSLKSRVTMLRDTSKNQFSLRLSSVTAADTAVYYCARSLARTTAMDYWGQGSLVTVSSGGGGSGGGGSGGGGSDIQMTQSPSSLSASVGDRVTITCRASQDISSYLNWYQQKPGKAPKLLIYYTSRLHSGVPSRFSGSGSGTDFTFTISSLQPEDIATYYCQQGNTLPYTFGQGTKVEIK
notes: Human IgG1-based
Kd [1]: 3.4 nM
IC50 [2]: 22 nM
Kd [3]: 19 nM
Kd [4]: 3.5 nM
